Results published in patent US20230399403A1 (BIONTECH, published 2023).
Residue numbers refer to the chain shown, from its start. Names may count otherwise.

B1: RiboMab-19-0233 (antibody, V domains shown)
VH: QSLEESGGDLVKPGASLTLTCKASGIDFSSVYYMCWVRQAPGKGLEWIACIYVGSSGVSYYATWAKGRFTISKTSSTTVTLQMTSLTAADTATYFCARAGYVGAVYVTLTRLDLWGQGTLVTVSS
VL: AAVLTQTPSPVSAAVGGTVTISCQSSQSIYTNNDLAWYQQKPGQPPKLLIYDASKLASGVPSRFSGSGSGTQFTLTISGVQSDDAATYYCLGGYDDDADNAFGGGTEVVVK
notes: Tested as HEK293T/17 supernatant, concentration not determined
B2: MAB-19-0202 (antibody, V domains shown)
VH: QSVEESGGRLVTPGTPLTLTCTVSGFSLYSYNMGWVRQAPGKGLEYIGIISGGTIGHYASWAKGRFTISKTSSTTVDLKMTSLTTEDTATYFCARAFYDDYDYNVWGPGTLVTVSS
VL: AAVLTQTPSPVSAAVGGTVTISCQSSQSVYGNNQLSWYQQKPGQPPKLLIYQASKLETGVPSRFKGSGSGTQFTLTISDLESDDAATYYCAGGYSSSSDTTFGGGTEVVVK
notes: Chimeric rabbit/human antibody: rabbit variable regions cloned N-terminal of human IgG1 / kappa constant parts with L234A and L235A (LALA)
B3: MAB-19-0208 (antibody, human IgG1, V domains shown)
VH: QSVEESGGRLVTPGTPLTLTCTVSGFSLSRYYISWVRQAPGKGLEWIGSFYADSGTTWYATWVKGRFTFSTASSTTVDLKMTSPTTEDTATYFCARNSGDAQFNIWGPGTLVTVSS
VL: AAVLTQTPSPVSAAVGGTVSISCQSSESVYNKNQLCWYQQKPGQRPKLLIYDASTLASGVPSRFSGSGSGTQFTLTISDVQSDAAATYYCAGGYSVTSDTTFGGGTEVVVR
notes: Chimeric rabbit/human antibody, human IgG1 constant parts with L234A and L235A (LALA); also called chimeric anti-PD-1 MAB-19-0208
B4: MAB-19-0217 (antibody, human IgG1, V domains shown)
VH: QSVEESGGRLVTPGTPLTLTCTVSGFSLSRYYMTWVRQAPGKGLEWIGIIYPDTGTTWYASWVKGRFTFSKTSSTTVDLKMTSPTTEDTATYFCARSTTDAQFNIWGPGTLVTVSS
VL: B3 VL with S28N, N31T, K32D, D79G, A84D, V96T, R111K
notes: Chimeric rabbit/human antibody, human IgG1 constant parts with L234A and L235A (LALA); also called chimeric anti-PD-1 MAB-19-0217
B5: MAB-19-0233 (antibody, human IgG1, V domains shown)
VH: B1 VH
VL: B1 VL
notes: Chimeric rabbit/human antibody, human IgG1 constant parts with L234A and L235A (LALA)
B6: MAB-19-0223 (antibody, human IgG1, V domains shown)
VH: QEHLVESGGGLVQPEGSLTLTCKASGIDFSDTYWICWVRQPPGKGLEWIGCIGIGGSGSTYYAGWAKGRFTISKTSSTTVTLQMTTLTDADTATYFCATEIPYFNVWGPGTLVTVSS
VL: AQVLTQTPSSVSAAVGGTVTINCQSSQSVYNKNWLAWYQQKPGQPPKLLIYDASKLTSGVPSRFKGSGSGTQFTLTISGVQSDDAATYYCQGTYDVNGWLVAFGGGAEVVVK
notes: Chimeric rabbit/human antibody, human IgG1 constant parts with L234A and L235A (LALA); also called chimeric anti-PD-1 MAB-19-0223
B7: MAB-19-0598 (antibody, IgG1, V domains shown)
VH: QVQLVESGGDVVKPGRSLRLSCKASGIDFSSVYYMCWVRQAPGKGLEWIACIYVGSSGVSYYATWAKGRFTISRDTSTSTLFLQMNSLRAGDTATYYCARAGYVGAVYVTLTRLDLWGQGTLVTVSS
VL: DIQMTQSPSSLSASVGGTVTITCQSSQSIYTNNDLAWYQQKPGQPPKLLIYDASKLASGVPSRFSGSGSGTQFTLTISSLQSEDAATYYCLGGYDDDADNAFGGGTEVVVK
notes: Recombinant humanized hIgG1-LALA antibody
B8: MAB-19-0583 (antibody, IgG1, V domains shown)
VH: B7 VH
VL: DVVMTQSPSTVSASVGDRVTLTCQSSQSIYTNNDLAWYQQKPGQPPKLLIYDASKLASGVPDRFSGSGSGTDFTLTISSLQADDFATYYCLGGYDDDADNAFGQGTKVEIK
notes: as for B7
B9: MAB-19-0594 (antibody, IgG1, V domains shown)
VH: EVQLEESGGGLVKPGGSLRLSCAASGIDFSSVYYMCWVRQAPGKGLEWVSCIYVGSSGVSYYATWAKGRFTISRDNSKNTLYLQMNSLRAEDTAVYYCARAGYVGAVYVTLTRLDLWGRGTLVTVSS
VL: B7 VL
notes: as for B7
B10: MAB-19-0603 (antibody, IgG1, V domains shown)
VH: QVQLVESGGGLVQPGTSLRLSCSVSGFSLYSYNMGWVRQAPGKGLEYIGIISGGTIGHYASWAKGRFTISRDTSKTTLYLQMNSLTTEDTATYFCARAFYDDYDYNVWGPGTLVTVSS
VL: DIVMTQSPSSLSASVGDRVTITCQSSQSVYGNNQLSWYQQKPGKAPKLLIYQASKLETGVPSRFSGSGSGTDFTLTISSLQPEDFATYYCAGGYSSSSDTTFGGGTKVVIK
notes: as for B7
B11: MAB-19-0618 (antibody, IgG1, V domains shown)
VH: B10 VH
VL: AIQLTQSPSSLSASVGGTVTITCQSSQSVYGNNQLSWYQQKPGQPPKLLIYQASKLETGVPSRFRGSGSGTQFTLTISSLQSEDFATYYCAGGYSSSSDTTFGGGTEVVVK
notes: as for B7
B12: MAB-19-0613 (antibody, IgG1, V domains shown)
VH: B10 VH
VL: B10 VL with V3Q, Q40K, K44Q, G104P, V109D
notes: as for B7
B13: MAB-19-0608 (antibody, IgG1, V domains shown)
VH: B10 VH
VL: B10 VL with V3Q, S10T, D72Q, E83D, T87S, G104Q, V109E
notes: as for B7

molecular target: T1, full-length human PD-1 expressed on cells (human, UniProt Q15116 25-288); assay: flow cytometry, K562 cells electroporated with full-length human PD-1 mRNA, dilutions of RiboMab-containing supernatant
T1 construct: also called HEK-293 cells ectopically expressing full-length human-PD1 (BPS Biosciences)
T1 sequence (Q15116 25-288 limits assumed): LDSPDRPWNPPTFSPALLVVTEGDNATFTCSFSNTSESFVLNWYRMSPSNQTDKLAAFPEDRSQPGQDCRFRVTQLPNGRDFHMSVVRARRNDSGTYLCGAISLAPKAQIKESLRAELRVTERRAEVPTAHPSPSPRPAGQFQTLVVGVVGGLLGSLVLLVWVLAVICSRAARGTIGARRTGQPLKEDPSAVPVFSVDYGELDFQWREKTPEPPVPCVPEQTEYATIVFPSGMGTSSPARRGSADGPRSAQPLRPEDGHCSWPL
Method: 20×10⁶ cells K562 cells growing in log-phase were used for electroporation of full-length human PD-1. Cells in 250 μL X-Vivo 15 medium (LONZA Technologies, cat. no. BE02-060F) were combined in 4 mm gap cuvettes with 10 μg human PD-1-encoding IVT-mRNA. Cells were immediately electroporated with a BTX ECM830 (BTX Harvard Apparatus) with the following setting: 200 V, 3 pulses, 8 ms.
Binding of RiboMabs to K562 cells expressing PD-1 was analyzed by flow cytometry. […] Cells were washed twice with FACS buffer, re-suspended in 60 μL FACS buffer and analyzed on a BD FACSCanto™ II flow cytometer (BD Biosciences). Binding curves were analyzed by non-linear regression (log(agonist) vs. response—variable slope (four parameters)) using GraphPad Prism V9.1.0 software.

For B1, the “fold difference in EC50 values (RiboMab-19-0233 against RiboMab-19-0202)” value was ~2.5 fold.

molecular target: T2, Recombinant human PD-1 human-FC Chimera (R&D Systems) (human, UniProt Q15116 25-170); assay: ELISA, coated recombinant human PD-1 human-Fc chimera
T2 construct: Bought construct; also called recombinant human-PD-1 extracellular domain; hPD-1 (ELISA); not shown: human Fc part of the bought chimera
Method: (§1) The binding potency of chimeric and humanized anti-PD-1 antibodies to recombinant human-PD-1 extracellular domain was determined by ELISA. Recombinant human PD-1 human-FC Chimera (R&D Systems) was coated on 384-well MaxiSorp™ flat bottom plates (Nunc) at a concentration of 0.625 μg/mL in PBS (Vendor) for 60 minutes at room temperature. Coated plates were washed three times with PBS, 0.1% Tween (PBS-T), blocked by incubation with PBS, 2% BSA, 0.05% Tween for 60 minutes at room temperature, and washed for an additional three times with PBS-T. Anti-PD-1-antibodies were added in PBS, 0.5% BSA, 0.05% Tween (ELISA buffer) in concentrations ranging from 1,000 to 0.06 ng/mL or 2,500 to 0.15 ng/mL and the plate was incubated for 60 minutes at room temperature. […] After 3 washes with PBS-T, horseradish peroxidase coupled goat-anti-human-IgG (Fab′)₂ fragment (AbD Serotec; Cat. No. STAR126P) was added in ELISA buffer at a dilution of 1:5,000. The plate was incubated for 60 minutes at room temperature, and washed 6 times with PBS-T before TMB solution (Thermo Fisher Scientific) was added. After 10 minutes HCl was added and the absorbance at wavelengths of 450 and 620 nm recorded using a Tecan Infinite M1000 reader. Data was fitted with a 4-parameter logistic model and EC50 values calculated using GraphPad Prism 8.4.3 (GraphPad Software, San Diego, CA, USA).

T2 sequence (Q15116 25-170, change not shown): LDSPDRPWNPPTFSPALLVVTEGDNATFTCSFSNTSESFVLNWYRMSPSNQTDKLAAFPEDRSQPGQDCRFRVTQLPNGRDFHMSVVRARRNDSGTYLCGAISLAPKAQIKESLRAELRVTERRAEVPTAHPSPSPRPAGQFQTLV

B2 and B3 are within 1.5-fold of each other in EC50: 3.5 ng/mL for the first, 4 ng/mL for the second.

B4 and B5 are within 1.5-fold of each other in EC50: 9.2 ng/mL for the first, 6.3 ng/mL for the second.

In the case of B6, the EC50 is reported as 6.6 ng/mL.

molecular target: T1, full-length human PD-1 expressed on …; assay: cell-based or functional assay

Going from B2 to B3, the “hPD-1 blockade assay IC50” value rises from 324 ng/mL to 870 ng/mL (2.7-fold).

B4 and B5 are within 1.5-fold of each other in “hPD-1 blockade assay IC50” value: 720 ng/mL for the first, 657 ng/mL for the second.

B6 was tested, and the “hPD-1 blockade assay IC50” value was 913 ng/mL.

molecular target: T1, full-length human PD-1 expressed on …; assay: cell-based or functional assay; remark: another data set of the same source

Going from B7 to B8, the “hPD-1 blockade assay IC50” value falls from 368 ng/mL to 188 ng/mL (2-fold).

First: B9
Second: B2
The “hPD-1 blockade assay IC50” value of the first is 5.6-fold higher: 311 ng/mL for the first, 56 ng/mL for the second.

B10 and B11 are within 1.5-fold of each other in “hPD-1 blockade assay IC50” value: 85 ng/mL for the first, 57 ng/mL for the second.

B12 and B13 are within 1.5-fold of each other in “hPD-1 blockade assay IC50” value: 93 ng/mL for the first, 63 ng/mL for the second.

molecular target: T2, Recombinant human PD-1 human-FC Chimera …; assay: ELISA, coated recombinant human PD-1 human-Fc chimera; remark: another data set of the same source
Method: as §1

B7 and B8 are within 1.5-fold of each other in EC50: 8.8 ng/mL for the first, 7.5 ng/mL for the second.

Going from B9 to B2, the EC50 falls from 14.6 ng/mL to 4 ng/mL (3.6-fold).

Compared with B10, B11 is 2.4-fold higher in EC50: 3.3 ng/mL for the first, 8 ng/mL for the second.

Compared with B12, B13 is 1.8-fold higher in EC50: 4.4 ng/mL for the first, 7.7 ng/mL for the second.

With B5 the EC50 was 7.2 ng/mL.

molecular target: T1, full-length human PD-1 expressed on …; assay: cell binding, HEK-293 cells expressing full-length human PD-1, CellInsight CX5 imaging
Method: (§2) Binding of chimeric and humanized anti-PD-1 antibodies to cell surface expressed hPD-1 was analyzed using HEK-293 cells ectopically expressing full-length human-PD1 (BPS Biosciences; Cat. No. 60680). Cell cultures were grown in MEM containing 10% FCS, ix MEM NEAA, 1 mM Na pyruvate and 100 μg/mL Hygromycin B. Hygromycin B was omitted when cells were plated for testing antibody binding. 1,000 cells in 20 μL medium were seeded per well in black 384-well cell-culture treated plates with clear bottom and were incubated for 2 hours at 37° C. and 5% CO₂. Anti-PD-1 antibodies were added in 5 μL medium to final concentrations ranging from 1,000 to 0.06 ng/mL or 620 to 0.45 ng/mL. […] After an 18 hours incubation at 37° C. and 5% CO₂, plates were washed once with 25 μL PBS, 0.05% Tween 20 (cell wash buffer) and Alexa-Fluor-488-conjugated AffiniPure goat-anti-human-IgG F(ab′)₂ fragment (Vendor) was added at a concentration of 0.8 μg/mL in 20 μL medium. Plates were incubated for 4 hours at 37° C. and 5% CO₂ in the dark, washed once with 25 μL cell wash buffer and incubated for 10 minutes with 20 μL medium containing 5 μg/ml Hoechst (Invitrogen). Cell-associated immunofluorescent signals were recorded using a CellInsight CX5 high content imager device (Thermo Fisher). Data was fitted with a 4-parameter logistic model and EC50 values calculated using GraphPad Prism 8.4.3.

First: B3
Second: B4
The EC50 of the first is 2.2-fold higher: 13.9 ng/mL for the first, 6.3 ng/mL for the second.

First: B5
Second: B6
The EC50 of the first is 2.4-fold higher: 16.8 ng/mL for the first, 7 ng/mL for the second.

molecular target: T1, full-length human PD-1 expressed on …; assay: as above; remark: another data set of the same source
Method: as §2

Going from B7 to B8, the EC50 falls from 5.7 ng/mL to 3.6 ng/mL (1.6-fold).

Going from B9 to B2, the EC50 falls from 9.5 ng/mL to 0.5 ng/mL (19-fold).

Compared with B10, B11 is 1.6-fold lower in EC50: 2.8 ng/mL for the first, 1.7 ng/mL for the second.

First: B12
Second: B13
The EC50 of the first is 2.3-fold lower: 1.2 ng/mL for the first, 2.8 ng/mL for the second.

B5 was tested, and the EC50 was 2.4 ng/mL.
